Experimental data published in US7892771B2, “Crystal structure of soluble glutaminyl cyclase” (Academia Sinica, priority 2006, dated 2011).
Residue numbers refer to the chain shown, from its start. Names and notes keep the numbering of the source.

B1: R54W: site-directed mutant R54W of human QC (protein)
chain: MAGGRHRRVVGTLHLLLLVAALPWASRGVSPSASAWPEEKNYHQPAILNSSALWQIAEGTSISEMWQNDLQPLLIERYPGSPGSYAARQHIMQRIQRLQADWVLEIDTFLSQTPYGYRSFSNIISTLNPTAKRHLVLACHYDSKYFSHWNNRVFVGATDSAVPCAMMLELARALDKKLLSLKTVSDSKPDLSLQLIFFDGEEAFLHWSPQDSLYGSRHLAAKMASTPHPPGARGTSQLHGMDLLVLLDLIGAPNPTFPNFFPNSARWFERLQAIEHELHELGLLKDHSLEGRYFQNYSYGGVIQDDHIPFLRRGVPVLHLIPSPFPEVWHTMDDNEENLDESTIDNLNKILQVFVLEYLHL
B2: W329A: site-directed mutant W329A of human QC (protein)
chain: B1 chain with W54R, W329A
B3: F146A: site-directed mutant F146A of human QC (protein)
chain: B1 chain with W54R, F146A
B4: Q304L: site-directed mutant Q304L of human QC (protein)
chain: B1 chain with W54R, Q304L
B5: K144A: site-directed mutant K144A of human QC (protein)
chain: B1 chain with W54R, K144A
B6: E201D: site-directed mutant E201D of human QC (protein)
chain: B1 chain with W54R, E201D
B7: W207L: site-directed mutant W207L of human QC (protein)
chain: B1 chain with W54R, W207L
B8: W207F: site-directed mutant W207F of human QC (protein)
chain: B1 chain with W54R, W207F
B9: F325A: site-directed mutant F325A of human QC (protein)
chain: B1 chain with W54R, F325A

Each molecule was assayed on human QC (assay: Kinetic parameters of wild-type and mutant human QC). Settings: pH 8.0.
Format: biochemical

| Molecule | Km [µM] | kcat [s⁻¹] |
| --- | --- | --- |
| B1 | 760 ± 40 | 7.35 ± 0.26 |
| B2 | 29500 ± 2290 | 1.35 ± 0.07 |
| B3 | 820 ± 160 | 7.91 ± 2.14 |
| B4 | 1160 ± 90 | 9.39 ± 1.18 |
| B5 | 1470 ± 20 | 11.67 ± 0.34 |
| B6 | 12600 ± 2980 | 0.87 ± 0.28 |
| B7 | 1770 ± 70 | 0.43 ± 0.01 |
| B8 | 590 ± 50 | 2.32 ± 0.07 |
| B9 | 4670 ± 240 | 12.91 ± 0.06 |
